This series is described as follows: soluble on expression in E. coli; label from the status in PepcDB or PDB records.
As to “MRIHNDKNDHGDNNEIMDYILEKYKPLVRKKTNALYLIGGENDDLIQEGMIGLFKAVRDYKSDKEASFYSFAQLCITRQLSSALEASNRKKHMPLNTYISFSQSDSDGTEFEEMLQDDIASPEQLLIEKEKFKEFKEQLWNKLSNMEKKVLQLYLEGNNYTSIAHMLGKSDKSIDNALSRIRQKLKRK”, the “soluble on expression in E. coli” value is listed as “not soluble”. Turning to “MRIHRRIKIKQKSVRIFIFDTKHRINDTKRQEDDEPHGLSALHFASRRPTCCACWMRRKKESTTTKVCVQDDCTTCSCTSASRCSRCSPCCSGCCSCTS”, the “soluble on expression in E. coli” value is given as “not soluble”. In the case of “MRIKLIIVEGKTDESFFKVLLEKLYGFREAKKLTPEFPIGKWGFRIGEHPLVLEKDNIALVIIHAEGKQRIPKVLKSVLDSVKLGLLNVEEVYVVRDVDEGNDVFEWVLSFLREREVRVDNGAIVTEGVKIYPYGMGNLTLNEPFVKEKKELELSLAYLAKLDGILEKYRGSMRALSQDKGDKLTPKDVMHILSIANDYTGDCLSGLYEKYIGIMIHRNRELLIRFLSEVNLLPLLERMVG”, the “soluble on expression in E. coli” value is recorded as “soluble”. For “MRIPFPSIKYPLIAILRGLKPEETEGVVGALIETGFRAIEIPLNSPDPFRSIEIAARMAPADCLIGAGTVLSVEDVASLDAAGGKLMVSPNADAEVITAAREKGMVTMPGVLTPTEALVAAKAGATGLKFFPASIIGPSGINAIRTILPKELIIAAVGGVSDKNFSDYTSAGIRAFGLGTSLYKPGMTAAEVRERATVTLAAYDAAIGG” the value was “not soluble”; for “MRIRRRDEKENQEYKKGLWTVEEDNILMDYVLNHGTGQWNRIVRKTGLKRCGKSCRLRWMNYLSPNVNKGNFTEQEEDLIIRLHKLLGNRWSLIAKRVPGRTDNQVKNYWNTHLSKKLVGDYSSAVKTTGEDDDSPPSLFITAATPSSCHHQQENIYENIAKSFNGVVSASYEDKPKQELAQKDVLMATTNDPSHYYGNNALWVHDDDFELSSLVMMNFASGDVEYCL”, “not soluble”; for “MRISKMLVTELNIYPLKSARGIALKESAVSAEGLPGDRRAMLTDPSGHFITQRELPAIATVLARHEDGGMALSRERSGEIFARPSGQRMDVAVWKSIVSANIADDETNDTLSAWLGREVKLVFFDDAAKRIASLEWTGNETPVTFADGYQILVTTTASLAALNDNMRGNGEDAVGMERFRPNIVLETEEAWAEDRWAAIEIGGIRFDLVKPCARCIMTTQDQMTGSRDVPSPMKAMGRIRMSGDRRVPGPLFGWNVTPRGEGRLSVGDVARVVEERPEGWAIKRR”, “soluble”. For “MRIVPFGAAREVTGSAHLLLAGGRRVLLDCGMFQGKEEARNHAPFGFDPKEVDAVLLTHAHLDHVGRLPKLFREGYRGPVYATRATVLLMEIVLEDALKVMDEPFFGPEDVEEALGHLRPLEYGEWLRLGALSLAFGQAGHLPGSAFVVAQGEGRTLVYSGDLGNREKDVLPDPSLPPLADLVLAEGTYGDRPHRPYRETVREFLEILEKTLSQGGKVLIPTFAVERAQEILYVLYTHGHRLPRAPIYLDSPMAGRVLSLYPRLVRYFSEEVQAHFLQGKNPFRPAGLEVVEHTEASKALNRAPGPMVVLAGSGMLAGGRILHHLKHGLSDPRNALVFVGYQPQGGLGAEIIARPPAVRILGEEVPLRASVHTLGGFSGHAGQDELLDWLQGEPRVVLVHGEEEKLLALGKLLALRGQEVSLARFGEGVPV” the value was “soluble”; for “MRKIGIIGGTFDPPHYGHLLIANEVYHALNLEEVWFLPNQIPPHKQGRNITSVESRLQMLELATEAEEHFSICLEELSRKGPSYTYDTMLQLTKKYPDVQFHFIIGGDMVEYLPKWYNIEALLDLVTFVGVARPGYKLRTPYPITTVEIPEFAVSSSLLRERYKEKKTCKYLLPEKVQVYIERNGLYESLAAALEHHHHHH”, “soluble”; for “MRKLKYHEKKLIKKVNFLEWKREGNHRENEITYRYHMGSRDDYKKYSGLCRMVQKLTNIMKQMDPADPFRIQMTDMLLEKLYNMGVIPTRKSLTLTERLSVSSFCRRRLSTVLVHLKFAEHHKEAVTYIEQGHVRVGPETITDPAFLVTRNMEDFITWVDSSKIKRKVLEYNDTLDDYDMLA”, “not soluble”. Regarding “MRKLTALFVASTLALGAANLAHAADTTTAAPADAKPMMHHKGKFGPHQDMMFKDLNLTDAQKQQIHEIMKGQRDQMKRPPLEERRAMHDIIASDTFDKAKAEAQIAKMEEQRKANMLAHMETQNKIYNILTPEQKKQFNANFEKRLTERPAAKGKMPATAELEHHHHHH”, the “soluble on expression in E. coli” value is recorded as “soluble”. For “MRKMMRQSLQAVLPEISGNKTSLLRKSVCSDLLTLFNSPHSALPSLLVSGMPEWQVHNPSDKHLQSWYCRQLRSALLFHEPRIAALQVNLKEAYCHTLAISLEIMLYHDDEPLTFDLVWDNGGWRSATLENVS” the value was “not soluble”.

For “MRKQNRPNQTARKQMQNLTVELFARDKNARRQLLNVALTATPPPSVEPSSPTRPSEPIPPPLPEPIPELVQILLAAEPNKPSVPKRSNRKKLTYKQPPRNSTPQVPKVAVTLPVPEPVPEPVPEPVPESTPEPISEPLPVVQEEPASDSLTVQDEQIAQAEPAVEPEEPVVVEHVEVVTASEDPTLESSPPSEPPLLTTPTTPIEDPEPYVTPPPLQRVPYKAQLTHLANIRAVTESMNIAAIPAHHQQHQPQEPMSFAACVRKQPSIESMSVSPSPYAKFDGKTSPFNVGGFSNPGGFGGFSRLDPSKNVNPFANRKRFNYDYDSLPRDSQSSSRFMDRSDLSDGFSPFNSKPNGFTNRVIPRESASSGMLPSWYKGRSFSAASSHYPYSQRSTSTGHFSSFSRPSQSTSMNIPSHGHVEELDGFLAASGQTNPFFKRTDLNMKKERWAKIKAKKRMLRRPVEDQFYEDPDIEEEILHGNGVMLNQIVQQSSAGNYEDADLLRKYRRDVAFVKERVLNAIDGNIDGIRDLRFLLASVQTYGNIDGECMLAEMAMNEFSLFSGIVEKFHAIVGPWMPESESHRRRASRHALETHRIPLQNNFATITKKRLVEEILGRVEPSIACHQGVKVGLYSDACNEKTKIDLNIKNNFKDPGMLCDKNDRRFILVLQSELDLMVDSMKHLANNVGFHYDGFPVTPNCFVIVEAFVEAISDIMNEKIDVETMRWFSLLGQKVDAEDSVSPWETGTDFHCARHSEPKSNFCASVTVGRTCCIVYHVIGSFFRRYHLKKIPTAHQPSSSNSVQ”, the “soluble on expression in E. coli” value was “not soluble”. As to “MRKTLIALMFAAALPTVAMAMPEGHGPMGPMDGPRHSEHMRGKGPFSQLDLSREQRQQIGKLMGEQMHDRKAVVEKYLEKLSPADQKAMKDELTAKHQKTQADIRALLKPEQQKEFDTIVKKQEERRAEWAEFKAWKAQQPQKAQLEHHHHHH”, the “soluble on expression in E. coli” value is listed as “soluble”. Under “MRLDLSAKFRQVLGLAKDHASIGRAIVQNYNEKAFFDIEVAVVRATSHDDCPVDDKTMHEILFLVSNTPGSIPFLAEQISRRLAKTRDCLVAGKTLLLFHRLLRGSSRSIEQQLHIAHTSGHLQIGCSWFMMSLDSRSFVFLQNYVAYLQERVGWIINQAGKLEPVMSGGTKFSRYKEKSMDLVFHILPKCQEFIAQVLKCSPVDAWPIDNLVQAATGNILKESFQVYMTYSDGMTALVSMLFDLSRPARDLACGMLRKASQQIQDLRILYDKCRGFAGMKSLDYPSVQAISMDHIVALEECSSYGGKRGFSLSTNLRDAITCNELKQEQHSASFSSTSPFSLPVETKISMVWVVFDNEDGEESDKQTEKAYER” stands “soluble”; under “MRLEVLCEDRLGLTRELLDILASKSIDLRGIEIDISGIIYLNCPDIDFDTFSELMAEIRRIPGVKDVRKIQFMPMERHNTELLSLVDNLPDPVFAIDLKGAVDMANMSALSLLGLHKQEVIGTQIGALLPSVRFSRWSEGVNARTRENLVIDGLDYILELMPVYIRDEAQNSTLASTLMTIRTSQHGTQIE”, “not soluble”. As to “MRLEYRLNDETKGYPALWNYANISNSEIIARMTCEYFIKEKNTYVVTATSVDPDGTAVIYIQKEVFANDPSDPTYSYIGFEIRELSETSSNIVDSQDVWNYEEILPSLHSDIIYIQRDGMSMEFSLDSREIDEDRKCYIYYGNFTGESR”, the “soluble on expression in E. coli” value was “soluble”. As for “MRLFECGTLVPGCAWHTRADDDAEVVRRTVDHMRSAHGETIIRENMIENIKSRIRDEANAA”, the “soluble on expression in E. coli” value was “not soluble”.

Turning to “MRLHPRTEAAKESIFPRMSGLAQRLGAVNLGQGFPSNPPPPFLLEAVRRALGRQDQYAPPAGLPALREALAEEFAVEPESVVVTSGATEALYVLLQSLVGPGDEVVVLEPFFDVYLPDAFLAGAKARLVRLDLTPEGFRLDLSALEKALTPRTRALLLNTPMNPTGLVFGERELEAIARLARAHDLFLISDEVYDELYYGERPRRLREFAPERTFTVGSAGKRLEATGYRVGWIVGPKEFMPRLAGMRQWTSFSAPTPLQAGVAEALKLARREGFYEALREGYRRRRDLLAGGLRAMGLRVYVPEGTYFLMAELPGWDAFRLVEEARVALIPASAFYLEDPPKDLFRFAFCKTEEELHLALERLGRVVNSPREAEGGAVSG”, the “soluble on expression in E. coli” value was “soluble”. Consider “MRMPASMEPDWKALLRVLRAHSATFYLGSLLFPKEARKGAWAVYAACRLGDEAVDGEGGGPEALEAWCSGVERAYRGRPLAEWEKGLAWALERWDIPFEAFLHMREGFQTDLGPVRLGTEAELLRYCYQVAGTVGRMMAPIAGGGKEAEARAVKLGQAMQLTNILRDVGEDLGRDRVYLPSELLKAYGVRLSDLEAGRITPEYRALMAHLEGKARALYREGLAGLGHLKVGRAAIALAALQYRGILDKLRLSGYDNLGRRAHLKAWERALLLPKAFLAARFPPRPEGSP”, for which the “soluble on expression in E. coli” value is reported as “soluble”. As to “MRPDAVMIFAAGFGTRMGALTATRPKPMIEVAGRPLIDHALALAEAAGISRIVANTHYLPESLTAHLAGRALVSHEEEILETGGGLCRALPLLGEGPVYTLNSDAVWTGENPLDELAAGWREGMEALLLLAPSGCAPGDFTMDAAGRLARARGAPGYTYLGAQILRTDRLAGVAEAKFSLNLVWDAMIAAGTAHGLIHRGGWCDVGRPEGIAAAEAMLANVLEHHHHHH”, the “soluble on expression in E. coli” value was “not soluble”. For “MRPGGYPKGVQARAWVEVDLAALWANYRLLAGRAGGEVIPVLKADAYGHGALPLARFLEGKGVGRFAVATLEEGRRLREGGIKGEVLLLGSLHPLEAEEALRLGLVPTLSNLEAAEALSQRARALGLVPRAHLKVDTGMNRVGFPSEEAVSALRAVEALGVRVEGVYTHLATAGEDAAFVETQRRRFQEVRRALGEGYFYHLENSLGLLRHGATAGVRVGLALYGLVPGFGLRPILRILARPTLVKRLKAGDRVGYGGVYVARGGEWLATLPVGYADGLPWGAVRFVKGPDGRLLEVAGRISMDQTTVLLPGPVGLEAVFEVLSADFGPTGLLAWAEARGTLPYEVAVHLSRRLPRRYLE” the value was “soluble”.

Turning to “MRPSAIVLAGGKEAWAERFGVGSKALVPYRGRPMVEWVLEALYAAGLSPVYVGENPGLVPAPALTLPDRGGLLENLEQALEHVEGRVLVATGDIPHLTEEAVRFVLDKAPEAALVYPIVPKEAVEARFPRTKRTYARLREGTFTGGNLLLLDKSLFRKALPLARRVVALRKRPLALARLVGWDVLLKLLLGRLSLAEVEARAQRILGVEARALVTPYPEVGVDVDREEDLVS”, the “soluble on expression in E. coli” value is listed as “soluble”. Under “MRPSGRMENKKQSKGASRGSRRRSINTSNSNTSARHAFSPCSYSSSGTEIRKVAISVSSNSTTELPCAQSPNVGSRTSDSHQLTLGSDLRSEPNNLNIAATLAEPNIAEHFKGVLTKKEAANLTRRDDFTMYYRVVKDQAKVELETTIPLFICYRNSENKVFSFRVEQVLTENNSMWWTVMINKQHTQMFRRLLDLVRCYHSYRFINPETRSQEMFPIWKYTNQASMNP” stands “not soluble”.
